Results on one molecule are retold here after paper doi:10.1101/2021.01.27.428466 (bioRxiv, 2021).

The target in this experiment is T1, receptor-binding domain (RBD) of the spike protein of SARS-CoV-2 (SARS-CoV-2, UniProt P0DTC2).
T1 construct: also called re-engineered RBD
Kind of experiment: SEC. The conditions noted are these: both partners purified.

B1: Sb16 (VHH)
VHH: QVQLVESGGGLVQAGGSLRLSCAASGFPVAYKTMWWYRQAPGKEREWVAAIESYGIKWTRYADSVKGRFTISRDNAKNTVYLQMNSLKPEDTAVYYCIVWVGAQYHGQGTQVTVSA
On to B1, for which the binding result is reported as “binds”.
